Data from paper PMC5677370, “Structure-based nuclear import mechanism of histones H3 and H4 mediated by Kap123” (eLife, 2017).

Key:
MBP-tagged Kap123 = assay: amylose affinity pull-down competition assay; settings: pre-assembled MBP-Kap123 and H3 1-59-Sumo, value at 0X set to 1.0, read off a plot
[1] = target: full-length Kluyveromyces lactis (Kl) Kap123, wild type (Kluyveromyces lactis); assay: SPR; wild-type Kl Kap123 immobilised on a CM5 chip (10 mM acetate pH 4.0); wild-type or mutant H3 or H4 peptides injected at 30 μl/min in binding buffer (10 mM HEPES, 150 mM NaCl); 7°C

MBP-tagged Kap123, sequence (chain, as listed by the source): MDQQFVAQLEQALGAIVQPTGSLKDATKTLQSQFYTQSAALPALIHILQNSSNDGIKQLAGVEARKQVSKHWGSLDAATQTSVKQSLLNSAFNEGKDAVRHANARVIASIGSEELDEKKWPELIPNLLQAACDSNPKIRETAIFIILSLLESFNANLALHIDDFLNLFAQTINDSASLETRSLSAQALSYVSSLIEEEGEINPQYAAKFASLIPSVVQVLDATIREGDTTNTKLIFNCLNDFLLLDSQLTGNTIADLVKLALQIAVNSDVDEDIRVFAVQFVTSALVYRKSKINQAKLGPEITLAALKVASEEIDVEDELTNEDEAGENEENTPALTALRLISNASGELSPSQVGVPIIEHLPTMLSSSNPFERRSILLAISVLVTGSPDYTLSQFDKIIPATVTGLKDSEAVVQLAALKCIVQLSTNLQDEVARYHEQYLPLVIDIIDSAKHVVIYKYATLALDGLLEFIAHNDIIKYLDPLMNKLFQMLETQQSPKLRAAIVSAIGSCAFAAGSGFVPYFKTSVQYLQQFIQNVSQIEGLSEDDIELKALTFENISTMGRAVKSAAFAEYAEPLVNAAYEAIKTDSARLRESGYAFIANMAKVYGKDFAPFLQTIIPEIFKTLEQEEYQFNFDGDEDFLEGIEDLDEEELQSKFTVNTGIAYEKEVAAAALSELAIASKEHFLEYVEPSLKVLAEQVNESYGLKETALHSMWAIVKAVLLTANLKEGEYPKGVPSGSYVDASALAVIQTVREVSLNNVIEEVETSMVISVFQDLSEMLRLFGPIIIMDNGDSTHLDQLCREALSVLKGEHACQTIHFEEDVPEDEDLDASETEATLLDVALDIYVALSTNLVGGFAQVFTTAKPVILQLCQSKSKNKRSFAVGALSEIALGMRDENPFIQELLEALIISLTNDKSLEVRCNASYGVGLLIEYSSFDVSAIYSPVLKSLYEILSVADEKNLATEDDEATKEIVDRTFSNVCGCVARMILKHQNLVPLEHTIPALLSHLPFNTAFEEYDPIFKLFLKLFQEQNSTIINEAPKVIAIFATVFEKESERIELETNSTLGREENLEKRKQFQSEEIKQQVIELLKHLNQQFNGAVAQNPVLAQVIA

other: relative intensity of H3 1-59-Sumo remaining bound to Kap123 after competition (MBP-tagged Kap123; competitor at 1X, parent: est. 0.88) | other: relative intensity of H3 1-59-Sumo remaining bound to Kap123 after competition (MBP-tagged Kap123; competitor at 2X, parent: est. 0.67) | other: relative intensity of H3 1-59-Sumo remaining bound to Kap123 after competition (MBP-tagged Kap123; competitor at 5X, parent: est. 0.32) | other: relative intensity of H3 1-59-Sumo remaining bound to Kap123 after competition (MBP-tagged Kap123; competitor at 10X, parent: est. 0.13) | fold affinity relative to H4-NLS [1] | Substance
0.99 | 0.99 | 0.94 | 0.96 | – | C-terminal Sumo-tagged histone H4_(1–48), P02309 K5Q; K8Q; K12Q
– | – | – | – | 5 fold | wild-type H3_(1–35)-NLS peptide (injected as analyte) (from UniProt P61830 2-36)
